Experimental data: the supplement of paper PMC9112550, “Optimization of the antimicrobial peptide Bac7 by deep mutational scanning” (BMC Biology, 2022)

What follows are sequences tested on Escherichia coli TOP10 (assay: shrunken log2 fold change of peptide-encoding DNA abundance (4.5 h post-induction vs induction); higher = less antimicrobial activity (less host growth inhibition)). Conditions: time post-induction: 4.5 h; library: site-saturation at positions 5, 18, 19, 20.
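Also: peptides expressed intracellularly from a pBAD plasmid library in pooled LB shake-flask culture, induced with 0.3% L-arabinose, DNA abundance read by NGS, three biological replicates, DESeq2 with apeglm shrinkage.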

RRIRRRPPRLPRPRPRPIFLPRP and RRIRERPPRLPRPRPRPDGHPRP are within 0.2 log units of each other in “shrunken log2 fold change” value: 0.0228 for the first, -0.00149 for the second.

First: RRIRYRPPRLPRPRPRPVRAPRP
Second: RRIRYRPPRLPRPRPRPQKNPRP
The “shrunken log2 fold change” value of the first is higher: 0.774 for the first, -0.555 for the second.

First: RRIRERPPRLPRPRPRPGSSPRP
Second: RRIRCRPPRLPRPRPRPEPFPRP
The “shrunken log2 fold change” value of the first is lower: -0.331 for the first, 0.0621 for the second.

RRIRARPPRLPRPRPRPCQSPRP and RRIRWRPPRLPRPRPRPGFPPRP are within 0.2 log units of each other in “shrunken log2 fold change” value: -0.0122 for the first, -0.0683 for the second.

RRIRIRPPRLPRPRPRPKCAPRP and RRIRCRPPRLPRPRPRPAVQPRP are within 0.2 log units of each other in “shrunken log2 fold change” value: 0.0106 for the first, -0.0829 for the second.

RRIRQRPPRLPRPRPRPELMPRP and RRIRQRPPRLPRPRPRPALWPRP are within 0.2 log units of each other in “shrunken log2 fold change” value: -0.0508 for the first, 0.144 for the second.

Going from RRIRRRPPRLPRPRPRPVKYPRP to RRIRWRPPRLPRPRPRPINCPRP, the “shrunken log2 fold change” value falls from -0.167 to -0.889.

RRIRNRPPRLPRPRPRPRACPRP and RRIRVRPPRLPRPRPRPCIVPRP are within 0.2 log units of each other in “shrunken log2 fold change” value: -0.0233 for the first, -0.0169 for the second.

Going from RRIRIRPPRLPRPRPRPGGIPRP to RRIRHRPPRLPRPRPRPRRCPRP, the “shrunken log2 fold change” value rises from -0.279 to 0.166.

RRIRLRPPRLPRPRPRPEEYPRP and RRIRTRPPRLPRPRPRPEWHPRP are within 0.2 log units of each other in “shrunken log2 fold change” value: 0.0401 for the first, 0.0594 for the second.

RRIRKRPPRLPRPRPRPWAWPRP and RRIRHRPPRLPRPRPRPQGEPRP are within 0.2 log units of each other in “shrunken log2 fold change” value: -0.00174 for the first, -0.171 for the second.

RRIRERPPRLPRPRPRPEPHPRP and RRIRFRPPRLPRPRPRPLSAPRP are within 0.2 log units of each other in “shrunken log2 fold change” value: -0.122 for the first, -0.039 for the second.

RRIRWRPPRLPRPRPRPEFQPRP and RRIRERPPRLPRPRPRPLGGPRP are within 0.2 log units of each other in “shrunken log2 fold change” value: 0.118 for the first, -0.073 for the second.

Going from RRIRTRPPRLPRPRPRPHITPRP to RRIRFRPPRLPRPRPRPDSQPRP, the “shrunken log2 fold change” value rises from -0.625 to -0.271.

Going from RRIRDRPPRLPRPRPRPGWVPRP to RRIRIRPPRLPRPRPRPFNMPRP, the “shrunken log2 fold change” value falls from 0.223 to -2.55.

Going from RRIRFRPPRLPRPRPRPNMCPRP to RRIRNRPPRLPRPRPRPGCQPRP, the “shrunken log2 fold change” value rises from -0.54 to -0.108.

Going from RRIRARPPRLPRPRPRPEEKPRP to RRIRQRPPRLPRPRPRPVYGPRP, the “shrunken log2 fold change” value falls from 1.22 to -0.258.

First: RRIRMRPPRLPRPRPRPNPLPRP
Second: RRIRTRPPRLPRPRPRPITGPRP
The “shrunken log2 fold change” value of the first is higher: 0.567 for the first, 0.00283 for the second.

Going from RRIRSRPPRLPRPRPRPLQTPRP to RRIRYRPPRLPRPRPRPRVQPRP, the “shrunken log2 fold change” value falls from 0.436 to -0.617.

Going from RRIRKRPPRLPRPRPRPLGPPRP to RRIRPRPPRLPRPRPRPMVQPRP, the “shrunken log2 fold change” value falls from 0.749 to 0.0526.

Compared with RRIRYRPPRLPRPRPRPVKNPRP, RRIRVRPPRLPRPRPRPSYLPRP is higher in “shrunken log2 fold change” value: -0.381 for the first, 0.753 for the second.

Going from RRIRMRPPRLPRPRPRPPRFPRP to RRIRARPPRLPRPRPRPVVYPRP, the “shrunken log2 fold change” value falls from 1.23 to -0.285.

Going from RRIRHRPPRLPRPRPRPPSSPRP to RRIRFRPPRLPRPRPRPYFKPRP, the “shrunken log2 fold change” value falls from -0.00863 to -0.848.

Compared with RRIRHRPPRLPRPRPRPMTSPRP, RRIRCRPPRLPRPRPRPPSGPRP is higher in “shrunken log2 fold change” value: -0.491 for the first, 0.233 for the second.

RRIRVRPPRLPRPRPRPPWLPRP and RRIRARPPRLPRPRPRPPFGPRP are within 0.2 log units of each other in “shrunken log2 fold change” value: 0.365 for the first, 0.436 for the second.

Going from RRIRERPPRLPRPRPRPPTVPRP to RRIRKRPPRLPRPRPRPARTPRP, the “shrunken log2 fold change” value rises from 0.166 to 0.476.

RRIRVRPPRLPRPRPRPAKVPRP and RRIRIRPPRLPRPRPRPSGGPRP are within 0.2 log units of each other in “shrunken log2 fold change” value: 0.203 for the first, 0.0858 for the second.

Going from RRIRIRPPRLPRPRPRPHLEPRP to RRIRGRPPRLPRPRPRPNMDPRP, the “shrunken log2 fold change” value rises from -0.384 to 0.265.

Going from RRIRERPPRLPRPRPRPQLNPRP to RRIRLRPPRLPRPRPRPIPVPRP, the “shrunken log2 fold change” value rises from -0.423 to -0.0985.

First: RRIRMRPPRLPRPRPRPHTQPRP
Second: RRIRFRPPRLPRPRPRPVKVPRP
The “shrunken log2 fold change” value of the first is higher: 0.614 for the first, -0.297 for the second.

Compared with RRIRDRPPRLPRPRPRPKDDPRP, RRIRQRPPRLPRPRPRPCPNPRP is lower in “shrunken log2 fold change” value: 0.0765 for the first, -0.152 for the second.

RRIRWRPPRLPRPRPRPISEPRP and RRIRYRPPRLPRPRPRPHACPRP are within 0.2 log units of each other in “shrunken log2 fold change” value: 0.00628 for the first, 0.0039 for the second.

Going from RRIRMRPPRLPRPRPRPESFPRP to RRIRWRPPRLPRPRPRPMLAPRP, the “shrunken log2 fold change” value rises from 0.0441 to 1.

RRIRNRPPRLPRPRPRPLAIPRP and RRIRARPPRLPRPRPRPADTPRP are within 0.2 log units of each other in “shrunken log2 fold change” value: 0.0449 for the first, 0.0859 for the second.

Going from RRIRSRPPRLPRPRPRPCQWPRP to RRIRGRPPRLPRPRPRPEMNPRP, the “shrunken log2 fold change” value rises from -0.134 to 0.999.

Compared with RRIRARPPRLPRPRPRPDWRPRP, RRIRPRPPRLPRPRPRPDPKPRP is higher in “shrunken log2 fold change” value: 0.146 for the first, 0.367 for the second.

First: RRIRPRPPRLPRPRPRPPGSPRP
Second: RRIRVRPPRLPRPRPRPYAHPRP
The “shrunken log2 fold change” value of the first is higher: 0.0805 for the first, -0.38 for the second.

Going from RRIRTRPPRLPRPRPRPIPRPRP to RRIRQRPPRLPRPRPRPCLTPRP, the “shrunken log2 fold change” value falls from 0.299 to 0.0158.

RRIRNRPPRLPRPRPRPLGIPRP and RRIRFRPPRLPRPRPRPMYTPRP are within 0.2 log units of each other in “shrunken log2 fold change” value: -0.169 for the first, -0.00812 for the second.

First: RRIRDRPPRLPRPRPRPDLCPRP
Second: RRIRERPPRLPRPRPRPQDPPRP
The “shrunken log2 fold change” value of the first is higher: -0.0018 for the first, -0.232 for the second.

Compared with RRIRHRPPRLPRPRPRPQWNPRP, RRIRNRPPRLPRPRPRPRPGPRP is higher in “shrunken log2 fold change” value: -0.281 for the first, 0.638 for the second.

RRIRFRPPRLPRPRPRPFKAPRP and RRIRMRPPRLPRPRPRPMKHPRP are within 0.2 log units of each other in “shrunken log2 fold change” value: -0.11 for the first, 0.0546 for the second.

Going from RRIRRRPPRLPRPRPRPNAPPRP to RRIRFRPPRLPRPRPRPKDRPRP, the “shrunken log2 fold change” value falls from 0.675 to 0.148.

Compared with RRIRLRPPRLPRPRPRPWFYPRP, RRIRRRPPRLPRPRPRPMYEPRP is higher in “shrunken log2 fold change” value: -0.785 for the first, -0.034 for the second.

RRIRTRPPRLPRPRPRPRGQPRP and RRIRGRPPRLPRPRPRPTFKPRP are within 0.2 log units of each other in “shrunken log2 fold change” value: 0.411 for the first, 0.538 for the second.

Going from RRIRWRPPRLPRPRPRPFHTPRP to RRIRYRPPRLPRPRPRPSYEPRP, the “shrunken log2 fold change” value falls from -0.171 to -0.629.

Compared with RRIRIRPPRLPRPRPRPNVAPRP, RRIRTRPPRLPRPRPRPLFQPRP is lower in “shrunken log2 fold change” value: 0.00755 for the first, -0.348 for the second.

Going from RRIRQRPPRLPRPRPRPWDPPRP to RRIRWRPPRLPRPRPRPNRHPRP, the “shrunken log2 fold change” value rises from -0.327 to 0.0506.

RRIRCRPPRLPRPRPRPWRAPRP and RRIRRRPPRLPRPRPRPWPWPRP are within 0.2 log units of each other in “shrunken log2 fold change” value: 0.0569 for the first, 0.0938 for the second.

RRIRRRPPRLPRPRPRPPVIPRP and RRIRGRPPRLPRPRPRPCKMPRP are within 0.2 log units of each other in “shrunken log2 fold change” value: -0.139 for the first, -0.0103 for the second.

RRIRLRPPRLPRPRPRPFVSPRP and RRIRSRPPRLPRPRPRPNGAPRP are within 0.2 log units of each other in “shrunken log2 fold change” value: -0.281 for the first, -0.299 for the second.

First: RRIRIRPPRLPRPRPRPLDTPRP
Second: RRIRNRPPRLPRPRPRPPCNPRP
The “shrunken log2 fold change” value of the first is higher: -0.142 for the first, -0.517 for the second.

RRIRSRPPRLPRPRPRPDKAPRP and RRIRLRPPRLPRPRPRPQLNPRP are within 0.2 log units of each other in “shrunken log2 fold change” value: -0.111 for the first, -0.214 for the second.

Compared with RRIRMRPPRLPRPRPRPYHNPRP, RRIRQRPPRLPRPRPRPFKYPRP is higher in “shrunken log2 fold change” value: -0.47 for the first, -0.0224 for the second.

With RRIRCRPPRLPRPRPRPQGEPRP the “shrunken log2 fold change” value was 0.161.
